Where no end group is shown, it is not given here.
Legend:
Test in all cases: peptide ELISA, biotinylated peptide on streptavidin plate; background-subtracted absorbance; positive from 0.2
1-15* (free N-term) = target: T1, 1-15* (free N-term) (also: biotinylated (site not given here))
T1 construct: also called tau peptide 1-15 (4R0N numbering), free N-terminus
T1 peptide: H-MAEPRQEFEVMEDHA
Description: (§1) Additional peptides were used to model potential post-translational modifications of the C- and N-terminal ends of the protein.
(§2) Biotinylated peptides were bound to separate wells of a streptavidin-coated ELISA plate. The plate was blocked and treated with murine 3D6, followed by incubation with a horseradish peroxidase-conjugated anti-mouse antibody. After thorough washing, OPD was applied to the plate and allowed to develop. The plate was read at 450 nm absorbance. Background subtraction was performed with absorbance values from wells containing no primary antibody, and a threshold for positive binding was set to 0.2 absorbance units. […] (FIG. 1)

73-87 = target: T2, 73-87 (also: biotinylated, site not given here)
T2 construct: also called tau peptide 73-87 (4R0N numbering)
T2 peptide: SKDGTGSDDKKAKGA
Description: as §1, §2

82-96 = target: T3, 82-96 (also: biotinylated, site not given here)
T3 construct: also called tau peptide 82-96 (4R0N numbering)
T3 peptide: KKAKGADGKTKIATP
Description: as §1, §2

127-141 = target: T4, 127-141 (also: biotinylated, site not given here)
T4 peptide: SGEPPKSGDRSGYSS
Description: as §1, §2

136-150 = target: T5, 136-150 (also: biotinylated, site not given here)
T5 construct: also called tau peptide 136-150 (4R0N numbering)
T5 peptide: RSGYSSPGSPGTPGS
Description: as §1, §2

145-159 = target: T6, 145-159 (also: biotinylated, site not given here)
T6 peptide: PGTPGSRSRTPSLPT
Description: as §1, §2

1-15* (acetylated) = target: T7, 1-15* (acetylated) (also: biotinylated (site not given here))
T7 construct: also called tau peptide 1-15 (4R0N numbering), acetylated
T7 peptide: Ac-MAEPRQEFEVMEDHA
Description: as §1, §2

163-177 = target: T8, 163-177 (also: biotinylated, site not given here)
T8 peptide: REPKKVAVVRTPPKS
Description: as §1, §2

172-186 = target: T9, 172-186 (also: biotinylated, site not given here)
T9 construct: also called tau peptide 172-186 (4R0N numbering)
T9 peptide: RTPPKSPSSAKSRLQ
Description: as §1, §2

181-195 = target: T10, 181-195 (also: biotinylated, site not given here)
T10 peptide: AKSRLQTAPVPMPDL
Description: as §1, §2

208-222 = target: T11, 208-222 (also: biotinylated, site not given here)
T11 construct: also called tau peptide 208-222 (4R0N numbering)
T11 peptide: LKHQPGGGKVQIINK
Description: as §1, §2

235-249 = target: T12, 235-249 (also: biotinylated, site not given here)
T12 construct: also called tau peptide 235-249 (4R0N numbering)
T12 peptide: SKDNIKHVPGGGSVQ
Description: as §1, §2

244-258 = target: T13, 244-258 (also: biotinylated, site not given here)
T13 peptide: GGGSVQIVYKPVDLS
Description: as §1, §2

253-267 = target: T14, 253-267 (also: biotinylated, site not given here)
T14 construct: also called tau peptide 253-267 (4R0N numbering)
T14 peptide: KPVDLSKVTSKCGSL
Description: as §1, §2

10-24 = target: T15, 10-24 (also: biotinylated (site not given here))
T15 construct: also called tau peptide 10-24 (4R0N numbering)
T15 peptide: VMEDHAGTYGLGDRK
Description: as §1, §2

289-303 = target: T16, 289-303 (also: biotinylated, site not given here)
T16 construct: also called tau peptide 289-303 (4R0N numbering)
T16 peptide: KDRVQSKIGSLDNIT
Description: as §1, §2

307-321 = target: T17, 307-321 (also: biotinylated, site not given here)
T17 construct: also called tau peptide 307-321 (4R0N numbering)
T17 peptide: GGGNKKIETHKLTFR
Description: as §1, §2

316-330 = target: T18, 316-330 (also: biotinylated, site not given here)
T18 construct: also called tau peptide 316-330 (4R0N numbering)
T18 peptide: HKLTFRENAKAKTDH
Description: as §1, §2

343-357 = target: T19, 343-357 (also: biotinylated, site not given here)
T19 construct: also called tau peptide 343-357 (4R0N numbering)
T19 peptide: GDTSPRHLSNVSSTG
Description: as §1, §2

28-42 = target: T20, 28-42 (also: biotinylated, site not given here)
T20 construct: also called tau peptide 28-42 (4R0N numbering)
T20 peptide: GYTMHQDQEGDTDAG
Description: as §1, §2

46-60 = target: T21, 46-60 (also: biotinylated, site not given here)
T21 construct: also called tau peptide 46-60 (4R0N numbering)
T21 peptide: EEAGIGDTPSLEDEA
Description: as §1, §2

Measured: binding result

B1: murine 3D6 monoclonal antibody (antibody, IgG1, V domains shown)
VH: EVQLQQSGADLVRPGALVKLSCKASGFNIKDYYLHWVRQRPEQGLEWIGWIDPENGDTVYDPKFQGKATITADTSSNTAYLQLGSLTSEDTAVYFCSTLDFWGQGTTLTVSS
VL: not shown
notes: Hybridoma-derived mouse antibody; also called m3D6; mouse 3D6
no binding: all assays above

Reference: US20200369755A1 (PROTHENA BIOSCIENCES, published 2020)
